Measured values published in article PMC4354923, “FTO is necessary for the induction of leptin resistance by high-fat feeding” (Molecular Metabolism, 2015).

Molecular target: Myc-tagged full length FTO (UniProt Q9C0B1 1-505)
Test: cell-based or functional assay

Chain of Myc-tagged full length FTO (Q9C0B1 whole entry): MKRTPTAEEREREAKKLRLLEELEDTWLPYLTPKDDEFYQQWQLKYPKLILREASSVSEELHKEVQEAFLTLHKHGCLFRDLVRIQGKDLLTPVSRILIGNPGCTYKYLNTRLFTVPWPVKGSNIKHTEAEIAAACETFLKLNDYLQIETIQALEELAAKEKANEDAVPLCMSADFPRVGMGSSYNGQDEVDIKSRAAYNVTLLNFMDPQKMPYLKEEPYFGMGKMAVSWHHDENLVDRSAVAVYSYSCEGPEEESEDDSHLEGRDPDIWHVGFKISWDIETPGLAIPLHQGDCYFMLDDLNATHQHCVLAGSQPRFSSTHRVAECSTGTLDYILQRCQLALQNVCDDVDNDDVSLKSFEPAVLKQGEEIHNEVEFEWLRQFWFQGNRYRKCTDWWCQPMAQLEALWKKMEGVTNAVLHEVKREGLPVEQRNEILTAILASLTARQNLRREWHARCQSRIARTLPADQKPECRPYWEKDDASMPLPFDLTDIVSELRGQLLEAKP

NFκB-responsive firefly luciferase reporter (normalised to renilla) in Fto null MEFs co-transfected with a TRIP4 expression construct and Myc-tagged full length FTO: ≤ 5 fold
B1: Thyroid receptor interacting protein 4 (TRIP4), in HEK293 cell extract (natural protein, human (endogenous in HEK293), UniProt Q15650 1-581, looked up)
chain: MAVAGAVSGEPLVHWCTQQLRKTFGLDVSEEIIQYVLSIESAEEIREYVTDLLQGNEGKKGQFIEELITKWQKNDQELISDPLQQCFKKDEILDGQKSGDHLKRGRKKGRNRQEVPAFTEPDTTAEVKTPFDLAKAQENSNSVKKKTKFVNLYTREGQDRLAVLLPGRHPCDCLGQKHKLINNCLICGRIVCEQEGSGPCLFCGTLVCTHEEQDILQRDSNKSQKLLKKLMSGVENSGKVDISTKDLLPHQELRIKSGLEKAIKHKDKLLEFDRTSIRRTQVIDDESDYFASDSNQWLSKLERETLQKREEELRELRHASRLSKKVTIDFAGRKILEEENSLAEYHSRLDETIQAIANGTLNQPLTKLDRSSEEPLGVLVNPNMYQSPPQWVDHTGAASQKKAFRSSGFGLEFNSFQHQLRIQDQEFQEGFDGGWCLSVHQPWASLLVRGIKRVEGRSWYTPHRGRLWIAATAKKPSPQEVSELQATYRLLRGKDVEFPNDYPSGCLLGCVDLIDCLSQKQFKEQFPDISQESDSPFVFICKNPQEMVVKFPIKGNPKIWKLDSKIHQGAKKGLMKQNKAV
